This note sets out measurements from PMC6127989, “Cytosolic GAPDH as a redox-dependent regulator of energy metabolism” (BMC Plant Biology, 2018).

What all share (settings): both partners purified
In test [1] the target is T1, reduced recombinant GapC1 (cytosolic NAD-dependent glyceraldehyde-3-phosphate dehydrogenase) from A. thaliana (A. thaliana, UniProt P25858 1-338).
T1 construct: GapC1, cytosolic NAD-dependent glyceraldehyde-3-phosphate dehydrogenase, Arabidopsis thaliana, At3g04120; Used as analyte on VDAC3 (pre-treated with 2 mM DTT) and immobilised via NHS in buffer with 2 mM DTT for Trx-h3; also called reduced GapC1; GAPDH; source: desalted before use; pre-treated with 2 mM DTT
T1 sequence (P25858 whole entry): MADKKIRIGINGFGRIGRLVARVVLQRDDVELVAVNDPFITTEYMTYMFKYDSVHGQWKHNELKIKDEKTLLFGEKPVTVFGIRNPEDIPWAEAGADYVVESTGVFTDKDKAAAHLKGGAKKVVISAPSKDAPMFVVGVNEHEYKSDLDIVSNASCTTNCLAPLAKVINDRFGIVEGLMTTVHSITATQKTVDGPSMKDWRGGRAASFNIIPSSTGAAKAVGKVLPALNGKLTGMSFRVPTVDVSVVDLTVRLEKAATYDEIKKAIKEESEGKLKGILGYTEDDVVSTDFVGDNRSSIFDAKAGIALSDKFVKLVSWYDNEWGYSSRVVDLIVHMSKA
Description: reflectance interferometry (RIf); GapC1 (or the control mCitrine) immobilised via NHS on a PEG surface; Trx-h3 injected at different concentrations; 20 mM HBS-buffer (100 mM NaCl, 0.01% Triton X-100, pH 7.5) with 2 mM DTT; KD from equilibrium binding signals by Scatchard plot.

Test [2] concerns the target T1, reduced recombinant GapC1 (cytosolic …). Description: reflectance interferometry (RIf); VDAC3 in a polymer-supported DOPC membrane on the chip; GapC1 pre-treated with 2 mM DTT (reduced) injected at different amounts in a flow chamber; rinsing with HBS buffer; association and dissociation phases fitted separately; protein-free lipid membrane as negative control.
Test [3] concerns the target T2, oxidized recombinant GapC1 from A. thaliana (pretreated with 0.5 mM H2O2 + 0.5 mM GSH) (A. thaliana, UniProt P25858 1-338, oxidized by pretreatment with 0.5 mM H2O2 + 0.5 mM GSH; modified residues not stated for this sample).
T2 construct: GapC1, cytosolic NAD-dependent glyceraldehyde-3-phosphate dehydrogenase, Arabidopsis thaliana, At3g04120; Same recombinant protein as m1, oxidised in vitro; also called oxidized GapC1; source: desalted before use; pre-treated with 0.5 mM H2O2 + 0.5 mM GSH
Description: reflectance interferometry (RIf); VDAC3 in a polymer-supported DOPC membrane on the chip; GapC1 pre-treated with 0.5 mM H2O2 + 0.5 mM GSH (oxidized) injected at different amounts in a flow chamber; rinsing with HBS buffer; association and dissociation phases fitted separately; protein-free lipid membrane as negative control.

T2 sequence (P25858 whole entry): as above

B1: recombinant thioredoxin Trx-h3 from A. thaliana (natural protein, UniProt Q42403 1-118, looked up)
chain: MAAEGEVIACHTVEDWTEKLKAANESKKLIVIDFTATWCPPCRFIAPVFADLAKKHLDVVFFKVDVDELNTVAEEFKVQAMPTFIFMKEGEIKETVVGAAKEEIIANLEKHKTVVAAA
notes: Thioredoxin h3 (Trx-h3), Arabidopsis thaliana
One may read the Kd as a measure of binding affinity in units of concentration. Turning to B1, the Kd in test [1] was 40 µM.

B2: recombinant voltage-dependent anion-selective channel VDAC3 from A. thaliana, reconstituted in a lipid bilayer (natural protein, UniProt Q9SMX3 1-274, looked up)
chain: MVKGPGLYTEIGKKARDLLYRDYQGDQKFSVTTYSSTGVAITTTGTNKGSLFLGDVATQVKNNNFTADVKVSTDSSLLTTLTFDEPAPGLKVIVQAKLPDHKSGKAEVQYFHDYAGISTSVGFTATPIVNFSGVVGTNGLSLGTDVAYNTESGNFKHFNAGFNFTKDDLTASLILNDKGEKLNASYYQIVSPSTVVGAEISHNFTTKENAITVGTQHALDPLTTVKARVNNAGVANALIQHEWRPKSFFTVSGEVDSKAIDKSAKVGIALALKP
notes: VDAC3, mitochondrial outer membrane voltage-dependent anion-selective channel 3, Arabidopsis thaliana; cDNA cloned into pCold I with SacI and XbaI; Protein:lipid 1:1000 in DOPC; formed a polymer-supported membrane on the RIf chip; The tag is inferred from the vector; also called AtVDAC3
For B2, the Kd in test [2] is 236 nM; in test [3], 556 nM.
